In article PMC3589475, “Large-Scale Functional Purification of Recombinant HIV-1 Capsid” (PLoS ONE, 2013):

Molecular target: cross-linked CA 4Mu hexamer (HIV-1 (NL4-3 strain))
Assay: SPR; Biacore T100; minimally biotinylated WT CA or CA 4Mu hexamer captured on neutravidin on CM5 chips, CAI injected (100 µM and 3-fold dilutions); 50 mM sodium phosphate pH 7.5, 150 mM NaCl, 0.01% P20; steady-state one-site fit

ITFEDLLDYYGP [CAI peptide] showed a Kd greater than 100 µM.
